# Measured values published in patent publication US5741673, “Nucleic acid encoding a novel homeobox factor which stimulates insulin expression in pancreatic islet cells” (Research Development Foundation).
# Key:
# [1] = target: T1, ITF-1 full length (CMV expression) (rat, UniProt P52947 SEQ:1-283); experiment: cell_activity; TSE I somatostatin reporter in HeLa cells
# [2] = target: ITF-1 fragment aa 124-283 (thrombin-cleaved from GST fusion) (rat, UniProt P52947 SEQ:124-283); experiment: footprint; DNase I; also bound in EMSA; conditions: tags: GST removed by thrombin
# Sequence of ITF-1 fragment aa 124-283 (thrombin-cleaved from GST fusion) (P52947 124-283): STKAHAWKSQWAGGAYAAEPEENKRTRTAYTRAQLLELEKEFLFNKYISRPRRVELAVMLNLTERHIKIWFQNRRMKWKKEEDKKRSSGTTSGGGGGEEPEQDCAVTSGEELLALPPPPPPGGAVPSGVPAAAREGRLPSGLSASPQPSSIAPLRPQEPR
# [3] = target: T1, ITF-1 full length (CMV expression); experiment: cell_activity; TSE II somatostatin reporter in HeLa cells
# T1 sequence (P52947 whole entry, the tested form may be a part): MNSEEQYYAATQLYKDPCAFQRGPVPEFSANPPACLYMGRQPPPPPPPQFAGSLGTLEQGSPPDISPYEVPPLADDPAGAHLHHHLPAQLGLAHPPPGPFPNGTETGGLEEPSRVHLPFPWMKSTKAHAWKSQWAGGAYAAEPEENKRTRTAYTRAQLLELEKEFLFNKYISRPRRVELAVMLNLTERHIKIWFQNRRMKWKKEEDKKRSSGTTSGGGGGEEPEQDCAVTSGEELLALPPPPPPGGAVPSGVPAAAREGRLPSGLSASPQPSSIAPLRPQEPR
Binder,binding result [2],other results
somatostatin TSE I (dsDNA) DNA 1: TTGCGAGGCTAATGGTGCG DNA 2: CGCACCATTAGCCTCGCAA,–,activity [1]: ~12 fold
rat insulin I FLAT (E2) (dsDNA) DNA 1: TTAATAATCTAATTACCC DNA 2: GGGTAATTAGATTATTAA,binds,–
rat insulin I P-Box (dsDNA) DNA 1: CTTAATGGGCCAAACGGCA DNA 2: TGCCGTTTGGCCCATTAAG,binds,–
somatostatin TSE II (dsDNA) DNA 1: GATCTCAGTAATAATCATGCAG DNA 2: CTGCATGATTATTACTGAGATC,–,activity [3]: ~12 fold
